Target: microtubules (paclitaxel-stabilised polymerised tubulin) (human (endogenous in HEK293T)) (UniProt P68363)
Assay: co-sedimentation; cell-based MT binding assay: lysate of transfected HEK293T cells in PEM buffer (80 mM PIPES pH 6.8, 1 mM EGTA, 1 mM MgCl2) with 0.1% Triton X-100, 2 mM GTP, 20 uM paclitaxel; 37 °C 30 min; 100,000 g 30 min; tau in supernatant and pellet by Western blot; percent MT-bound = pellet/(supernatant+pellet)*100

Chain of UniProt P68363 (P68363 whole entry, chain 1 of 2): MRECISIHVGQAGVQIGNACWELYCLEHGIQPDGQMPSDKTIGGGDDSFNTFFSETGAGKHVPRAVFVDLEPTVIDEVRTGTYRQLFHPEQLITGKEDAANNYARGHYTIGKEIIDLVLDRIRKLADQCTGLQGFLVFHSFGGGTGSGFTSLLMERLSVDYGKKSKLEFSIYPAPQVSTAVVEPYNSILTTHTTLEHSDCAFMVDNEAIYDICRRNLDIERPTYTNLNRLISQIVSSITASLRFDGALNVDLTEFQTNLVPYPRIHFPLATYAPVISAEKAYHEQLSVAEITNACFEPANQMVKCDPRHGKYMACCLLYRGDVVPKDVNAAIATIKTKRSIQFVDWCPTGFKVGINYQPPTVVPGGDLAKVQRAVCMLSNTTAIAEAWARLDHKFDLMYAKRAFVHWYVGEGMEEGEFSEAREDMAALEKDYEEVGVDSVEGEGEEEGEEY
Chain of UniProt P68363 (P07437 whole entry, chain 2 of 2, further chain): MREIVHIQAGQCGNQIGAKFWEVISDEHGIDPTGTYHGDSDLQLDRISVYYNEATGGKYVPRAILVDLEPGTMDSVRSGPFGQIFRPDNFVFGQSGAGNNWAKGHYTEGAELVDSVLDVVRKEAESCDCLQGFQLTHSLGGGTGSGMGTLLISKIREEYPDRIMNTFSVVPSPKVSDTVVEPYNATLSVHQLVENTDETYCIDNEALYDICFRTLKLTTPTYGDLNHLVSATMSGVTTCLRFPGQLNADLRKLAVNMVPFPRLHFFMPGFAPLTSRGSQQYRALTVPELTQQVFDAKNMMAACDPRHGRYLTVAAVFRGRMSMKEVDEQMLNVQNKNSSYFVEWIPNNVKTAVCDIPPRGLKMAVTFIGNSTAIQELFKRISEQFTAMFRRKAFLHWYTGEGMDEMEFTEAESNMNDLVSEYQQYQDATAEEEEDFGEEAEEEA

2N4R human tau S208E phosphomimetic (from UniProt P10636-8 1-441) (natural protein)
percent of tau bound to MTs: 41%
